Source: the supplement of paper PMC7125110
± gives the standard error. Variants at the floor of the assay were thinned out.

B1: glmS ribozyme (parent)
chain: AUAAAAGCGCCAGAACUACAGAAAUGUAGUUGACGAGGAGGAGGUUUAUCGAAUUUUCGGCGGAUGCCUCCAAA

Tests used:
Settings in all cases: with glucosamine-6-phosphate
glucosamine-6-phosphate [1] = variants of: B1; experiment: self-cleavage kobs at 160 uM GlcN6P; higher = faster cleavage; RNA array
Outline: (§1)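 Barcoded ribozyme variants, transcribed in situ by E. coli RNA polymerase on sequenced MiSeq chips, were followed via a hybridised Cy3 probe at 37 °C. Glucosamine-6-phosphate ranged from 40 μM to 10 mM in HEPES/KCl/Mg(OAc)2 buffer. kobs came from decay fits to per-tile medians, and kcat and KM from weighted Michaelis–Menten fits.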

glucosamine-6-phosphate [2] = variants of: B1; experiment: self-cleavage kobs at 2500 uM GlcN6P; higher = faster cleavage; RNA array
Outline: as §1

glucosamine-6-phosphate [3] = variants of: B1; experiment: self-cleavage kobs at 10000 uM GlcN6P; higher = faster cleavage; RNA array
Outline: as §1

glucosamine-6-phosphate [4] = variants of: B1; experiment: self-cleavage kobs at 640 uM GlcN6P; higher = faster cleavage; RNA array
Outline: as §1

Row | Variant | self-cleavage kobs at 160 uM GlcN6P (glucosamine-6-phosphate [1]) [s⁻¹] | self-cleavage kobs at 2500 uM GlcN6P (glucosamine-6-phosphate [2]) [s⁻¹] | self-cleavage kobs at 10000 uM GlcN6P (glucosamine-6-phosphate [3]) [s⁻¹] | self-cleavage kobs at 640 uM GlcN6P (glucosamine-6-phosphate [4]) [s⁻¹]
1 | G13U G35C G51C U54A C70U | < 1e-05 | < 1e-05 | – | –
2 | G29U U31A U56A C67A | 2.97e-05 ± 1.5e-05 | – | 0.00027 ± 5.8e-05 | –
3 | G32C G44A A48U | < 1e-05 | < 1e-05 | – | < 1e-05
4 | C8U G32C U47A | < 1e-05 | < 1e-05 | – | < 1e-05
5 | C50U U56C C68U C70U | < 1e-05 | – | – | –
6 | G29A G32U G40U G44U | – | < 1e-05 | – | < 1e-05
7 | G9C U46G C67G | < 1e-05 | – | – | –
8 | G7C U45A | < 1e-05 | < 1e-05 | < 1e-05 | < 1e-05
9 | G35U A39U | < 1e-05 | < 1e-05 | – | < 1e-05
10 | U55G C68A | 0.000151 ± 6.4e-05 | 9.69e-05 ± 1.8e-05 | 2.8e-05 ± 1.4e-05 | 6.91e-05 ± 2.2e-05
11 | G13A G44C | – | – | – | < 1e-05
12 | G29C G40A G44U A64G | – | < 1e-05 | – | < 1e-05
13 | G7A A48G | < 1e-05 | < 1e-05 | < 1e-05 | –
14 | C16U G40C U47G | 6.77e-05 ± 2.5e-05 | 0.000389 ± 9.2e-05 | – | 0.000145 ± 2e-05
15 | G60U A64C G66U C70A | < 1e-05 | – | – | –
16 | C11G A33U U49C C50U U65C | < 1e-05 | – | – | –
17 | G59A G62U | < 1e-05 | < 1e-05 | – | –
18 | U30C A36G U57C | < 1e-05 | < 1e-05 | – | < 1e-05
19 | A6G C11U A15U C50U | < 1e-05 | – | < 1e-05 | –
20 | G29C C61U C71U | < 1e-05 | – | – | –
21 | C16G G41U U54A | < 1e-05 | – | – | –
22 | A15U C34A A64G | < 1e-05 | < 1e-05 | – | –
23 | A42C A53C | < 1e-05 | – | – | < 1e-05
24 | G9A A48U C50A | – | – | – | < 1e-05
25 | G59U U65A C67U | < 1e-05 | – | – | –
26 | C8G G35U G66A | < 1e-05 | – | – | < 1e-05

Row | Variant | self-cleavage kobs at 160 uM GlcN6P (glucosamine-6-phosphate [1]) [s⁻¹] | self-cleavage kobs at 2500 uM GlcN6P (glucosamine-6-phosphate [2]) [s⁻¹] | self-cleavage kobs at 10000 uM GlcN6P (glucosamine-6-phosphate [3]) [s⁻¹] | self-cleavage kobs at 640 uM GlcN6P (glucosamine-6-phosphate [4]) [s⁻¹]
27 | C10A U31G A42U | < 1e-05 | < 1e-05 | – | < 1e-05
28 | U31C U69A | 4.12e-05 ± 1.4e-05 | 5.91e-05 ± 1.4e-05 | – | –
29 | C8A C11A G37U G41C A53C G63C | – | < 1e-05 | – | < 1e-05
30 | A12U A15G G41A | 0.000272 ± 4.5e-05 | – | – | 0.00098 ± 0.00018
31 | C10U C11G A39C | < 1e-05 | – | – | < 1e-05
32 | G40A U45C | 4.64e-05 ± 1.6e-05 | 0.000553 ± 0.00016 | – | –
33 | C8U G66C | < 1e-05 | < 1e-05 | < 1e-05 | < 1e-05
34 | C8U G66U | < 1e-05 | – | < 1e-05 | < 1e-05
35 | C11G U47A | < 1e-05 | – | < 1e-05 | < 1e-05
36 | U54C U56A G59C U65A | < 1e-05 | < 1e-05 | – | –
37 | G9U G32C G35C A64G | < 1e-05 | < 1e-05 | – | < 1e-05
38 | G41U U69G | < 1e-05 | < 1e-05 | < 1e-05 | < 1e-05
39 | A36C G37C U46A A48G C70G | – | – | – | < 1e-05
40 | A48G U49C G60A | < 1e-05 | < 1e-05 | – | < 1e-05
41 | A36U U46C C50U C58U G59C C67A | – | – | – | < 1e-05
42 | G44U U45G U69A | < 1e-05 | – | – | –
43 | A14C G38C | < 1e-05 | < 1e-05 | < 1e-05 | < 1e-05
44 | A6G C11U G51U | – | – | – | < 1e-05
45 | U31A U47C G51A G66A | – | < 1e-05 | – | < 1e-05
46 | A15G G63A | < 1e-05 | < 1e-05 | < 1e-05 | < 1e-05
47 | G32U A42C | < 1e-05 | < 1e-05 | – | < 1e-05
48 | G29A G40A A64G | – | 0.000112 ± 2.1e-05 | – | 5.47e-05 ± 1.8e-05
49 | G9C G51U | < 1e-05 | – | < 1e-05 | < 1e-05
50 | A42G G62C | < 1e-05 | < 1e-05 | < 1e-05 | < 1e-05
51 | G37C U45G G63U | – | < 1e-05 | – | < 1e-05
52 | G13A U46G A48G G59A | < 1e-05 | < 1e-05 | < 1e-05 | –
